# Experiment: soluble on expression in E. coli; label from the status in PepcDB or PDB records
row,Sequence,soluble on expression in E. coli
1,GPGSMSLVESQKDMADLLPCNEECGGDYGRYSFGQTDTEVIVKVPLPSDTPTKMINVDVKVSSLTIGMKGQSPLISGDLYKPVKVDECTWCVEDKSVLVVTLVKTNAQYEEWWPCVTTNERQIDMKTFRPPSKHISELDDSARATIAKMMFDQRQKALNLPSSDELRLRELMQRGGTSN,soluble
2,GPGSMSMQQDFVHPRQLDDMRAIHAAINSFSGVMTKMMMLMKELGTTLEQVSHSFDALTSLTFTKDEVKQYVHKFGEEIISMKEGIAFCEYNKLVHEDVLHPVEQLKKSLKEAEQAAKAEKSAFEKYKKAKQRVDKQEKAFAEKSKPLDTSKSYPTHVQARNNALVSLQNCKSEFEERFVMLMNDVESVTSTALRRYLELNAGYMTSVVDALTKTDPTVGEAAVFYRQEKQAHRQSAVEQCCLQVNSDLSTAHASQGYRFDPSRMNGCLHDTIIFKRLPSRLRHSTGSRTRSLRVNRPAVE,soluble
3,GPGSMSNEEVFRISNVSGYSVEIPLATAKELLGMLNMDQVFRAARAGTDDTDESGVDDGDTEPVKAEGMDYGKEVLDVVRAYALLPPDKRTSSIPRPLTQDLRSVVYAGEMELVEKAEREDYLVDLLNCALFLRFSQLSALCAAYMAVRIDEIAKAAPDIMEGAERIRKFLHMQNEWTEEEMGHLRREMEYAKSVDPNVY,soluble
4,GPGSMSRQQQAQELQKQWETDPRWKGIKRAFTAEDVVRLRGSIQQEHTLAKRGAEKLWTLINNEPFVNALGALTGNQAMQQVKAGLKAIYLSGWQVAGDANVAGEMYPDQSLYPANSVPLVVKRINNTLTRADQIQWSEGKNPGDEGYVDFFAPIVADAEAGFGGVLNAFELMKAMIEAGASGVHFEDQLASVKKCGHMGGKVLVPTREAVAKLTAARLAADVMGTPTVLVARTDAEAADLITSDIDDNDKPYLTGERTVEGFFRTKPGLEQAISRGLAYAPYADLIWCETGKPDLEYAKKFAEAIHKQFPGKLLSYNCSPSFNWKKNLDDATIAKFQKELGAMGYKFQFITLAGFHALNYSMFNLAHGYARTQMSAFVELQQAEFAAADKGFTAVKHQREVGTGYFDAVTQTVEREASTTALHGSTEDEQFFDGQKVA,soluble
5,GPGSMSSKEELAALMASDGDFEKKISLLKKAVVTVTKQKKEVEARQTQLQGELSTATQQLAEAQRANAALQRKVKSLEAQQEQERSSGSAFGQNMLKGLSSIMGNSDSANRGGARGERGSAGDRLSLSPEDVERLISENEQLHRQIYAFKTKLEDVQHSSAKDTERLKSEVARLQRETQELRRSLEANTATGDRLRADYLTERALGDFCRHFFVATLLRPQQERESFLTGTTVEVRWPAKGPSSNSAAAAFSDSLPAVVSERVTLALQSAAGTVKTLLRGVSVLAVVLQEQLPSRERATVGDLECLRDRLSVFLEAHTAKKDSLMYLLEQLDSQLSAVQHADEEGGSAPVSADAFVEAQGNIVQLVLEWVGLLRTQLPLLVESCVAILPHGNSYTMYTAHVSAGTGDGAAEPRKTTTERGEFVEEVTRHGYATLASIEGSLTAMRMLVERSPTAYYRCYNNGNRGGALPEPPTTKETLNFTSSLEATQPPMDLSSLLALQQFWWEGCTSVRSLRASILALNSGLVNVAEACNKSEIRDALNYLCKCLEAIAAASEEMYGSPRLAPADADAAIAALVPDALAPRTPAHAPPSEASSWALRPRTAIATSSTLTAEGVRDTAYADKYEELLVALSAADRAAASYYTQMNYLYVEMAEKEDALQTALEAVAHLQQLIVAERAEAKHTRQALQSQISLLSTQLVEMAGAPAAQTPQ,not soluble
6,GPGSMSSLQKINDIEAELARTQKNKATMAHICALKARLAQLKRELIASESKKGGGKGEGFDVQKTGDARIGFIGFPSVGKSTLLSKMTSTHSEVAAYEFTTLTCVPGVVNYRGAKLQMLDLPGIIEGAKDGKGRGRQVIAVARTCSLILIVLDIAKPLQHKLIIERELDGFGIRLNKSPPDIVIRKKDRGGISISSTCPLTHIDQETIKIILGEYRMANADVTFRGDYTADEFIDAIEGNRAYIPAIYVLNKIDQISIEELDIVARIPHNCPISAHHEWNLDGLLECIWDHLNFIRVYTKPKGQVPDYDAPVILKKSPQPSVESFCNRIHRQLIRNYKYAWVWGSSVKHQPQRVGKDHSLDDEDVVQVVKKV,not soluble
7,GPGSMSSSGPLAPPISWAQRPEYVLITIPLQDTTGVSVEIKDEGRELHFACSSPEHKQYACTIHFYGVISSEESQHVVRPRQIELKLRKKFSKSLEDANDDEVEWPRLTKEKSKYPNITIDWSKWKDENDDECAADDLGNFGLSGGDAMDGQYSEMLSQLMQAQGQKDAEESADLPPGTIPGFGSARGQEATHGASAETGDDDGDMPPLEEDT,soluble

# — the DeepSol protein solubility set
